Measurements: article PMC10401002

Target: endogenous human glyceraldehyde 3-phosphate dehydrogenase (GAPDH), 3xFLAG-tagged by CRISPR/Cas9 knock-in (human (endogenous in HEK293T)) (UniProt P04406)
Assay: cryo-EM structure; single-particle cryo-EM of endogenous 3xFLAG-tagged protein purified from HEK293T (anti-FLAG M2, SEC in TBS) on amine-modified graphene oxide grids; GAPDH also from cytosol and nuclei after 8 and 24 h of oxidative stress (1 mM H2O2, 10 mM L-Arg)

Chain of endogenous human glyceraldehyde 3-phosphate dehydrogenase (GAPDH), 3xFLAG-tagged by CRISPR/Cas9 knock-in, P04406 1-335 (enzyme; other documents disagree on this pair) (P04406 whole entry): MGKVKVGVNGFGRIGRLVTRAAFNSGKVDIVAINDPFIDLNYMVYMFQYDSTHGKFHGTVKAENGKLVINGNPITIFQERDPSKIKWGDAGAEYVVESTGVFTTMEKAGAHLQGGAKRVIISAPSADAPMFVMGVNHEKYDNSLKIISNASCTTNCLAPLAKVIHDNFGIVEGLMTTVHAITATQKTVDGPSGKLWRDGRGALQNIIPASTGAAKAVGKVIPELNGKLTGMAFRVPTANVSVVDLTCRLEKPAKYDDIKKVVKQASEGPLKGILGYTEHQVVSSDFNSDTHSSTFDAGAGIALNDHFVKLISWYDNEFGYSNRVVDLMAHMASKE

“endogenous human glyceraldehyde 3-phosphate dehydrogenase (GAPDH), 3xFLAG-tagged by CRISPR/Cas9 knock-in, P04406 1-335 (enzyme; other documents disagree on this pair)” showed a stoichiometry N of 4.
